Test results taken from PMC8163506, “A novel ATP dependent dimethylsulfoniopropionate lyase in bacteria that releases dimethyl sulfide and acryloyl-CoA” (eLife, 2021).

Molecular target: DddX (ATP-dependent DMSP lyase) of Psychrobacter sp. D2, recombinant (Psychrobacter sp. D2)
Assay: SEC; gel filtration of purified DddX against molecular mass standards (semilog plot of mass versus Kav)

DddX (ATP-dependent DMSP lyase) of Psychrobacter sp. D2, recombinant (enzyme)
stoichiometry N: 2
